Key:
Bio-pt655 (phospho T217) = test: indirect ELISA: biotinylated peptide on streptavidin plate, antibody titrated, peroxidase tracer antibody, TMB, OD450-630nm; panel 'Bio-pt655 (phospho T217)'
Procedure: Tau antibodies described herein that detect phosphorylated Tau were tested in ELISA assays. […] Briefly, streptavidin beads were bound to a plate and biotinylated peptide was added to the plates under conditions allowing for biotin-streptavidin binding. […] This was the target peptide. After binding of the synthetic peptide to the plate by the formation of the biotin-streptavidin complex, Tau antibodies were added to the plates under conditions allowing for antibody-target peptide binding. […] After binding, plates were washed to remove any unbound tracer antibody and plates next had TMB ELISA Peroxidase chromogenic substrate (3, 3′, 5, 5′-Tetramethylbenzidine) added to visualize antibody reactivity in indirect ELISA experiments. Antibody sample binding was quantitated using an ELISA microplate reader.
PT3 corresponds to a mouse anti-phospho (T212/T217) Tau selective antibody (Janssen Biotech Inc.). 30H10L2 corresponds to Antibody 2 described herein. 71H1L2 corresponds to Antibody 6 described herein. 62H10L7 corresponds to Antibody 5 described herein.

Adx-pt655 = test: capture ELISA: 30H10L2 bound to the plate, biotinylated peptide titrated (the concentration is that of Adx-pt655), streptavidin-peroxidase, TMB, OD450-630nm
From the text: In FIG. 25, a diagram of an assay using Antibody 2 to detect capture of particular Tau peptides is depicted. In this assay, Antibody 2 is bound to a plate and sample wells from the plate are subjected to various biotinylated peptides under conditions conducive to forming specific antibody-ligand interactions. Samples are then washes to remove excess unbound biotinylated peptide. Streptavidin beads conjugated to peroxidase and then added to the samples to allow biotin-streptavidin complexes to form on peptide bound antibodies. TMBred substrate is then added and samples are measured for colorimetric development using an ELISA plate reader. […] Antibody 5 and Antibody 6 tested by indirect ELISA under the same conditions using the same Tau peptides yielded no specific dose-dependent reactivity toward the Tau peptides tested.

[1] = target: T1, Tau in brain lysate samples from Control subjects (human, UniProt P10636-8 2-441, limits assumed); test: Western blot of brain lysates
T1 construct: A mixture of isoforms; also called different length isoforms of Tau in control samples
Procedure: (§1) In FIG. 26, Western blots were used to assess binding of various antibodies to brain lysate samples from AD patients and Control subjects. Protein ladders were run in lanes 1 and 10. Phosphatase treated pTau loaded in an amount of 0.05 ug was run in lane 2. Full-length Tau (Tau411) loaded in an amount of 0.05 ug was run in lane 3. Lanes 4-6 contain samples from different Control subjects with a dilution factor of 5. Lanes 7-9 contain samples from different AD subjects with a dilution factor of 5.

[2] = target: T2, Tau in brain lysate samples from AD patients (human, UniProt P10636-8 2-441, limits assumed); test: Western blot of brain lysates
T2 construct: A mixture of isoforms; The phosphorylation state was not defined by the experiment; also called different length isoforms of Tau in AD samples
Procedure: as §1

T2 sequence (P10636 other isoform, or with tags, fused parts or gaps limits assumed): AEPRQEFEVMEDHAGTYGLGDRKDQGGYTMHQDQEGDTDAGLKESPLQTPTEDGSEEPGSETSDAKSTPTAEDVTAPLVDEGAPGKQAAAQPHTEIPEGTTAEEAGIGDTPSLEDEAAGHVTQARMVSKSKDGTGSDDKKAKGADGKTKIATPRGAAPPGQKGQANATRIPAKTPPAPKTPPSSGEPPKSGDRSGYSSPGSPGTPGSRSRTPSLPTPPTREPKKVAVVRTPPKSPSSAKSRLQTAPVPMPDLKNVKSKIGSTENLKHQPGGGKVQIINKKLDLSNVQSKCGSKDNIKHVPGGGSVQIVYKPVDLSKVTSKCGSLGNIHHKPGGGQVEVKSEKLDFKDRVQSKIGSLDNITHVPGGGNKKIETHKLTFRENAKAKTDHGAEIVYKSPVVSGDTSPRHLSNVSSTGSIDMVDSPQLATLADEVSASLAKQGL
T1 sequence (P10636 other isoform, or with tags, fused parts or gaps limits assumed): as above

Binder	EC50 (read off the curve) (Bio-pt655 (phospho T217)) [µg/mL]	EC50 (read off the curve) (Adx-pt655) [µg/mL]	binding result [1]	binding result [2]
Antibody 2 (antibody, V domains shown, also called 30H10L2) VH: QSVEESGGRLVTPGTPLTLTCTVSGFSLSSYAMIWVRQAPGKGLEWIGFISRSGITYYASWAKGRFTISKTSTTVDLKMTSLTTEDTATYFCAREFGAVGSDYYRDAFNLWGPGTLVTVSS VL: DIVMTQTPASVEAAVGGTVTINCQASESINSWLSWYQQKPGQPPNLLIYRASTLASGVPSRFSGGGSGTEYTLTISDLECADAVTYYCQSYYEEDGIGYAFGGGTEVVVEG	~0.2	~0.4	–	–
Antibody 5 (antibody, V domains shown, also called 62H10L7) VH: QSVEESGGGLVTPGGTLTLTCTVSGFSLSNYAMSWVRQAPGKGLEWIGFISRSGITYYASWAKGRFTISKTSTTVDLKITSPTTEDTAAYFCAREFGAVGSDYYRDALRLWGPGTLVTVSS VL: DIVMTQTPSSVSAAVGGTVTIKCQASQSIGSNLAWYQQKPGQPPKLLIYGASTLESGVPSRFKGSGSGTEYTLTISDLECADAATYYCQSYYEGSDIGYAFGGGTEVVVEG	–	–	no binding (tested: DF 5)	no binding (tested: DF 5)
Antibody 6 (antibody, V domains shown, also called 71H1L2) VH: QSLEESGGRLVTPGTPLTLTCTVSGIDLSTHAMTWVRQAPGKGLEWIGVINPSGSAYYATWVNGRFTISKTSTTVDLKITSPTTGDTAKYFCARDYITAGDYYMDAFDPWGPGTLVTVSS VL: DIVMTQTPASVSAAVGGTVTIKCQASQSISNQLSWYQQKSGQPPKLLIYRASTLASGVPSRFKGSGSGTEFTLTISDLECADAATYYCQQGYNRDNVDNLFGGGTEVVVKG	–	–	no binding (tested: DF 5)	no binding (tested: DF 5)
